What was measured:
[1] = molecular target: T1, CD3 epsilon/gamma heterodimer (Homo sapiens, UniProt P07766;P09693 P07766:23-126,P09693:23-116); assay: SPR; kinetic, DPBS; settings: tags: C-terminal human IgG1 Fc fusion, AcroBiosystems; chain copies: heterodimer 1:1 (inferred); label: 5'-biotin-TEG
Procedure: (§1) Binding affinity measurements were performed using a BIAcore T200 instrument (GE Healthcare). To analyze interactions between aptamers and CD3 proteins, 1000 Resonance Units of biotinylated aptamers were immobilized on Series S Sensor chips SA (GE Healthcare) according to manufacturer's instructions (GE Healthcare). SELEX buffer was used as the running buffer. The interactions were measured in the “Single Kinetics Cycle” mode at a flow rate of 30 μl/min and by injecting different concentrations of human CD3 ε/γ, CD3 ε/δ, IgG1 Fc and mouse CD3 ε/δ (Sino Biological). The highest protein concentration used was 100 nM. Other concentrations were obtained by 3-fold dilution. All kinetic data of the interaction were evaluated using the BIAcore T200 evaluation software. Table 3 below provides a summary of KD values obtained from surface plasmon resonance measurements.
(§2) Binding of anti-CD3 RNA aptamers to each of purified recombinant human CD3 ε/γ and CD3 ε/δ proteins was measured using surface plasmon resonance. Binding studies were performed generally as described in Example 5 except that SELEX buffer was replaced by DPBS. The highest protein concentration used was 300 nM. Other concentrations were obtained by 3-fold dilution. Binding to hIgG1 Fc was used as control. Binding to murine CD3 do (mCD3 c/S) was also measured.

IgG1 Fc (counter target) [2] = molecular target: T2, IgG1 Fc (counter target) (Homo sapiens, UniProt P01857-1 P01857-1:100-330); assay: SPR; NA, DPBS; settings: tags: AcroBiosystems; chain copies: 2; label: 5'-biotin-TEG
Procedure: as §1, §2

[3] = molecular target: T3, CD3 epsilon/delta heterodimer (Homo sapiens, UniProt P07766;P04234 P07766:23-126,P04234:22-105); assay: SPR; NA, DPBS; settings: tags: C-terminal human IgG1 Fc fusion, AcroBiosystems; chain copies: heterodimer 1:1 (inferred); label: 5'-biotin-TEG
T3 sequence (P07766 23-126, stated change not applied, chain 1 of 2): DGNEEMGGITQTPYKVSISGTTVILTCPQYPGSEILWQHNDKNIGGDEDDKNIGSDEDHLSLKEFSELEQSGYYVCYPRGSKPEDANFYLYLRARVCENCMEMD
T3 sequence (P04234 22-105, stated change not applied, chain 2 of 2): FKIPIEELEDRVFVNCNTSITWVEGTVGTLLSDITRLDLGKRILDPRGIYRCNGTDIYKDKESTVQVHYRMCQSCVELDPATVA
Procedure: as §1, §2

[4] = molecular target: T1, CD3 epsilon/gamma heterodimer; assay: SPR; steady state; kinetic fits 5 nM (Table 3), 5.2 nM (Table 6), 119 pM (Table 8), 156 nM steady state (Table 9); SELEX buffer Mg Ca; settings: tags: C-terminal human IgG1 Fc fusion, AcroBiosystems; chain copies: heterodimer 1:1 (inferred); label: 5'-biotin-TEG
Procedure: as §1

[5] = molecular target: T3, CD3 epsilon/delta heterodimer; assay: SPR; steady state; kinetic 3.7 nM (Table 3), 9.9 nM (Table 6), 217 pM (Table 8); settings: tags: C-terminal human IgG1 Fc fusion, AcroBiosystems; chain copies: heterodimer 1:1 (inferred); label: 5'-biotin-TEG
Procedure: as §1

IgG1 Fc (counter target) [6] = molecular target: T2, IgG1 Fc (counter target); assay: SPR; NA, no interaction; Table 3 prints 56.3 mM; settings: tags: AcroBiosystems; chain copies: 2; label: 5'-biotin-TEG
Procedure: as §1

IgG1 Fc (counter target) [7] = molecular target: T2, IgG1 Fc (counter target); assay: SPR; no interaction observed; settings: tags: AcroBiosystems; chain copies: 2; label: 5'-biotin-TEG
Procedure: Binding affinity measurements with the most interesting anti-CD3 aptamers derived from the core sequence were performed using a BIAcore T200 instrument (GE Healthcare) as already described in Example 4. To analyze interactions between aptamers and CD3 proteins, biotinylated aptamers were immobilized at a lower density than in Example 4 (100-500 RU) on Series S Sensor chips SA (GE Healthcare) according to manufacturer's instructions (GE Healthcare). Mouse and Cynomolgus CD3 ε/δ were purchased from AcroBiosystems. For human proteins, the highest concentration used was 100 nM and 1 μM for mouse and cynomolgus antigens. Other concentrations were obtained by 3-fold dilutions.
Table 8 below provides a summary of KD values obtained from surface plasmon resonance measurements. […] Variants of the core sequence identified in cell binding assays (CELTIC_core_12, CELTIC_core_24, CELTIC_core_29, CELTIC_core_40 and CELTIC_core_42) were all confirmed to have better affinities than the unmodified aptamer with human CD3 ε/γ. As already observed in Example 4, the affinities were in general slightly lower with CD3 ε/δ which is a consequence of the SELEX strategy that included more rounds on the CD3 ε/γ isoform. None of these sequences did bind to the Fc region of human IgG1.

[8] = molecular target: T1, CD3 epsilon/gamma heterodimer; assay: SPR; steady state; kinetic 65.2 nM (Table 6); settings: tags: C-terminal human IgG1 Fc fusion, AcroBiosystems; chain copies: heterodimer 1:1 (inferred); label: 5'-biotin-TEG
Procedure: as §1

[9] = molecular target: T3, CD3 epsilon/delta heterodimer; assay: SPR; steady state; kinetic 3.2 uM (Table 6); settings: tags: C-terminal human IgG1 Fc fusion, AcroBiosystems; chain copies: heterodimer 1:1 (inferred); label: 5'-biotin-TEG
Procedure: as §1

IgG1 Fc (counter target) [10] = molecular target: T2, IgG1 Fc (counter target); assay: SPR; no interaction observed; settings: tags: AcroBiosystems; chain copies: 2; label: 5'-biotin-TEG; remark: listed apart in the source
Procedure: as §1

IgG1 Fc (counter target) [11] = molecular target: T2, IgG1 Fc (counter target); assay: SPR; no interaction observed; printed CELTIC_CD3_22; settings: tags: AcroBiosystems; chain copies: 2; label: 5'-biotin-TEG
Procedure: as §1

T1 sequence (P07766 23-126, chain 1 of 2): as the sequence (P07766 23-126, stated change not applied, chain 1 of 2) above
T1 sequence (P09693 23-116, chain 2 of 2): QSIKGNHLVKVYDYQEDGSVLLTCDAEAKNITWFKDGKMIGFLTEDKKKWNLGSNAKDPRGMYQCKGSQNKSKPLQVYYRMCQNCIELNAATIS

B1: ARACD3-3130001 (ssRNA)
RNA: GAUGAUAUCUUUAAUAUCAAUUGCAGCGAUUCUUGUUUGAGAAUAAAC
modifications: 2'-F pyrimidines
Kd [1]: 332 nM
binding result (IgG1 Fc (counter target) [2]): no binding
binding result [3]: no binding

B2: CELTIC_1s (ssDNA)
DNA: TTTCCGGGTGGGGGTTTGGCACCGGGCCTGGCGCAGGGATTCG
Kd [4]: 53 nM
Kd [5]: 125 nM
binding result (IgG1 Fc (counter target) [6]): no binding

B3: CELTIC_core_40t (ssDNA)
DNA: GGGTTTGGCATCGGGTCTGGC
modifications: 5'-HEG, 3'-3' dT
binding result (IgG1 Fc (counter target) [7]): no binding

B4: CELTIC_2s (ssDNA)
DNA: GAGGGGTTTGGCATCGGGCCTGGCGCCATTCAAGCTATGC
Kd [8]: 627 nM
Kd [9]: 260 nM
binding result (IgG1 Fc (counter target) [10]): no binding

B5: CELTIC_22s (ssDNA)
DNA: CGACCACAGGGGTTTGGCTTCGGGACTGGCGGTGGGCACT
binding result (IgG1 Fc (counter target) [11]): no binding

From patent publication US20220251562, “Anti-CD3 Aptamers for Use in Cell Targeting and Labeling” (Ixaka France, published 2022)
